Reference: patent publication US20260116928A1, “COMPOSITIONS AND PARTICLES FOR PAYLOAD DELIVERY” (Thornhill Therapeutics, Inc., priority 2019, published 2026)

Tested on: pancreatin
Assay: Pancreatin assay (stability of SEQ ID NO: 3 and exenatide formulations)
Settings: after 120 minutes of incubation with pancreatin; FIG. 11

B1: SEQ ID NO: 3: Cholix carrier protein having the sequence of SEQ ID NO: 3 (protein)
chain: MVEEALNIFDECRSPCSLTPEPGKPIQSKLSIPSDVVLDEGVLYYSMTINDEQNDIKDEDKGESIITIGEFATVRATRHYVNQDAPFGVIHLDITTENGTKTYSYNRKEGEFAINWLVPIGEDSPASIKISVDELDQQRNIIEVPKLYSIDLDNQTLEQWKTQGNVSFSVTRPEHNIAISWPSVSYKAAQKEGSRHKRWAHWHTGLALCWLVPMDAIYNYITQQNCTLGDNWFGGSYETVAGTPKVITVKQGIEQKPVEQRIHFSKGSGGSGGGGSGGGGSPRRRRSSSRPVRRRRRPRVSRRRRRRGGRRRRHHHHHH
  degradation of SEQ ID NO: 3 by pancreatin: completely degraded
